Patent publication US8728980B2, “Peptide microarray and method of use” (The Regents of the University of California, priority 2011, dated 2014)
Non-standard residues stand in square brackets, D forms with d. Primed or numbered codes have the meaning given here. No end group written: not given here. Me3 = trimethylation of the lysine side chain; Me3(3) = trimethyl (trimethylated lysine); Lys(Me3) = C[N+](C)(C)CCCC[C@H](N)C(=O)O

These sequences were tested against T1, Polycomb protein chromodomain (Drosophila melanogaster, UniProt P26017) (assay: Peptide microarray binding of GST-tagged Polycomb chromodomain). Conditions: Binder if at least two of three spots pass p-value cutoff 0.001 from background.
T1 construct: The chromodomain (a.a. 1-90) of Polycomb protein was expressed as GST-tagged fusion protein; made in house
T1 sequence (P26017 1-90): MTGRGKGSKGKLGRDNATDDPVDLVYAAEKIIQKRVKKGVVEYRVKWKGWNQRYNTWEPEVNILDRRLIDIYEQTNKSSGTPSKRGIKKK
Design: dose or concentration left out as unconfirmed
From the text: There are a total of 46 histone peptide sequences (9 a.a. long) with a single lysine-trimethylation site which are conserved between the human and fruit fly H2, H3 and H4 proteins (Table II). These were screened for Polycomb protein chromodomain binding by peptide microarray. Each peptide sequence was screened as triplets, and the fluorescence intensity was quantified with background subtraction individually for each spot from the microarray images by ImageJ^9 and the whole data set was fit to a mixed Gaussian distribution model (FIG. 8, Table III).
Twelve out of the 46 sequences were identified as positive binders under these criteria. Ten of these microarray-identified binders also yielded high mutation matrix score in an independent prediction (Table IV).
The chromodomain (a.a. 1-90) of Polycomb protein was expressed as GST-tagged fusion protein and purified as described in [65]. The purity of the protein was examined by SDS-PAGE electrophoresis followed by both Coomassie staining and western blot using an Anti-GST-HRP conjugate (Santa Cruz Biotechnology). The concentration of purified protein was determined by BCA assay (Amresco). A total of 46 trimethylated histone peptides were synthesized by Sigma Aldrich (desalted, mass spectrometry checked). The peptides were then printed as triplets onto glass slides (ArrayIt), together with a Cy3 marker and an anti-GST (mouse monoclonal) antibody (Thermo) as references.
The peptide microarray was rinsed with TBST buffer (25 mM Tris, 125 mM NaCl, 0.05% Tween-20, pH 8) followed by blocking with 5% non-fat milk in TBST (room temperature 1 hour or 4° C. overnight). The slide was then incubated at 4° C. with Polycomb-GST fusion protein at a final concentration of […] in 5% non-fat milk/TBST for 6 hours. After washing three times for 10 minutes each with TBST, the slide was incubated with an anti-GST mouse monoclonal IgG antibody (Thermo) at a final concentration of 1 μg/mL in 5% non-fat milk/TBST and shaken gently for 1 hour at room temperature. A secondary anti-mouse IgG Dylight-488 conjugated antibody (Thermo) was added to a final concentration of 0.1 μg/mL after three more cycles of 10 minutes washing with TBST. The slide was shaken for 1 hr at room temperature and washed three times with TBST.
The dried microarray slides were scanned using a Hamamatsu NanoZoomer 2.0HT Slide Scanning System (Neuroscience Light Microscopy Facility, UCSD). Data quantification were processed using the microarray processing software ImageJ^9, where the fluorescent intensity of a microarray spot was defined as its own intensity minus the background intensity around it on the scanned image.

Row | Sequence | Array Verification
1 | RIHRLLRKG (RIHRLLRK(Me3(3))G) | Binder
2 | MAGGKAGKD (not fully specified (residue 8); also: trimethylated lysine, site not given here) | NonBinder
3 | APATGGVKK (not fully specified (residue 8); also: trimethylated lysine, site not given here) [9-residue histone peptide, H3_DROME, trimethylated lysine site 36] | NonBinder
4 | TGGKAPRKQ (also: trimethylated Lys, site not given here) [9-residue histone peptide, H3_DROME, trimethylated lysine site 18] | NonBinder
5 | IHKSLIGKK (not fully specified (residue 8); also: trimethylated lysine, site not given here) | NonBinder
6 | YTEHAKRKT (YTEHAKRK(Me3)T) [9-residue histone peptide, H4_DROME, trimethylated lysine site 79] | NonBinder
7 | PATGGVKKP (not fully specified (residue 8); also: trimethylated lysine, site not given here) [9-residue histone peptide, H3_DROME, trimethylated lysine site 37] | NonBinder
8 | EGTKAVTKY (also: trimethylated Lys, site not given here) | Binder
9 | VTYTEHAKR (VTYTEHAK(Me3(3))R) [9-residue histone peptide, H4_DROME, trimethylated lysine site 77] | NonBinder
10 | RNDEELNKL (RNDEELNK(Me3(3))L) | NonBinder
11 | APSTGGVKK (also: trimethylated Lys, site not given here) [9-residue histone peptide, H33_DROME, trimethylated lysine site 36] | NonBinder
12 | QAVLLPKKT (QAVLLPKK(Me3)T) | NonBinder
13 | PRKQLATKA (PRKQLATK(Me3)A) [9-residue histone peptide, H3_DROME, trimethylated lysine site 23] | Binder
14 | IQAVLLPKK (not fully specified (residue 8); also: trimethylated lysine, site not given here) | Binder
15 | KRVTIMPKD (not fully specified (residue 8); also: trimethylated lysine, site not given here) [9-residue histone peptide, H3_DROME, trimethylated lysine site 122] | NonBinder
16 | EELDSLIKA (EELDSLI[Lys(Me3)]A) | NonBinder
17 | ELAGNASKD (ELAGNASK(Me3(3))D) | NonBinder
18 | GGAKRHRKV (also: trimethylated lysine, site not given here) [9-residue histone peptide, H4_DROME, trimethylated lysine site 20] | Binder
19 | PDTGISSKA (PDTGISSK(Me3(3))A) | NonBinder
20 | ASKDLKVKR (not fully specified (residue 8); also: trimethylated lysine, site not given here) | Binder
21 | REIRRYQKS (REIRRYQK(Me3(3))S) [9-residue histone peptide, H3_DROME, trimethylated lysine site 56] | Binder
22 | HAVSEGTKA (HAVSEGTK(Me3(3))A) | NonBinder
23 | DSGKAKAKA (not fully specified (residue 8); also: trimethylated lysine, site not given here) | Binder

Row | Sequence | Array Verification
24 | PSTGGVKKP (also: trimethylated Lys, site not given here) [9-residue histone peptide, H33_DROME, trimethylated lysine site 37] | NonBinder
25 | MDVVYALKR (MDVVYALK(Me3(3))R) [9-residue histone peptide, H4_DROME, trimethylated lysine site 91] | Binder
26 | STELLIRKL (STELLIRK(Me3(3))L) [9-residue histone peptide, H3_DROME, trimethylated lysine site 64] | NonBinder
27 | SRLAHYNKR (SRLAHYNK(Me3(3))R) | NonBinder
28 | GRIHRHLKS (GRIHRHLK(Me3(3))S) | Binder
29 | GKDSGKAKA (not fully specified (residue 8); also: trimethylated lysine, site not given here) | NonBinder
30 | GNAARDNKK (also: trimethylated Lys, site not given here) | NonBinder
31 | LLPGELAKH (LLPGELAK(Me3(3))H) | NonBinder
32 | IYIYKVLKQ (also: trimethylated Lys, site not given here) | NonBinder
33 | DNIQGITKP (DNIQGIT[Lys(Me3)]P) [9-residue histone peptide, H4_DROME, trimethylated lysine site 31] | NonBinder
34 | KGGKGLGKG (not fully specified (residue 8); also: trimethylated lysine, site not given here) [9-residue histone peptide, H4_DROME, trimethylated lysine site 12] | NonBinder
35 | GVIPHIHKS (GVIPHIHK(Me3(3))S) | NonBinder
36 | GLGKGGAKR [9-residue histone peptide, H4_DROME, trimethylated lysine site 16] | NonBinder
37 | NLCAIHAKR (NLCAIHAK(Me3(3))R) [9-residue histone peptide, H3_DROME, trimethylated lysine site 115] | NonBinder
38 | LARRGGVKR (LARRGGVK(Me3(3))R) [9-residue histone peptide, H4_DROME, trimethylated lysine site 44] | NonBinder
39 | KAGKDSGKA (not fully specified (residue 8); also: trimethylated lysine, site not given here) | NonBinder
40 | NAARDNKKT (also: trimethylated Lys, site not given here) | NonBinder
41 | EETRGVLKV (EETRGVL[Lys(Me3)]V) [9-residue histone peptide, H4_DROME, trimethylated lysine site 59] | NonBinder
42 | GNASKDLKV (not fully specified (residue 8); also: trimethylated lysine, site not given here) | NonBinder
43 | ARKSTGGKA (also: trimethylated Lys, site not given here) [9-residue histone peptide, H3_DROME, trimethylated lysine site 14] | NonBinder
44 | RTKQTARKS (also: trimethylated lysine, site not given here) [9-residue histone peptide, H3_DROME, trimethylated lysine site 9] | Binder
45 | REIAQDFKT (REIAQDFK(Me3(3))T) [9-residue histone peptide, H3_DROME, trimethylated lysine site 79] | NonBinder
